Assays:
Assay in all cases: binding ELISA on coated antigen (8 µg/mL), HRP anti-Fc detection, 450 nm (Experimental Example 2.5)
[1] = molecular target: T1, CD300a antigen (12449-H08H, Sino Biological) (UniProt Q9UGN4 18-178)
T1 sequence (looked up): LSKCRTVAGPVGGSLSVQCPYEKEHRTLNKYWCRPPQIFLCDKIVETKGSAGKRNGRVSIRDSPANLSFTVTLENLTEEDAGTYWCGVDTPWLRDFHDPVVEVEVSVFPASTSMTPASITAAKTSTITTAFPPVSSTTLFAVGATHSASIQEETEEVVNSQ
Method: (§1) In order to identify that the anti-CD300c monoclonal antibody CL7 specifically binds only to CD300c without binding to other B7 family proteins, binding ELISA was performed. More specifically, each of CD300c antigen, CD300a antigen, or seven B7 family protein antigens (PD-L1 [B7-H1] (Sino Biological), ICOS Ligand[B7-H2] (Sino Biological), CD276[B7-H3] (Sino Biological), B7-H4 (Sino Biological), CD80[B7-1] (Sino Biological), CD86[B7-2] (Sino Biological), CD273[PD-L2] (Sino Biological)) in a coating buffer (0.1 M sodium carbonate, pH 9.0) was coated on an ELISA plate at a concentration of 8 μg/mL per well, and then bound to the plate by incubation at 2° C. to 8° C. overnight. The unbound antigen was removed by washing with PBST three times, and then […] of blocking buffer (5% skim milk in PBST) was added to each well. Subsequently, blocking was performed at room temperature for 1 hour, followed by washing again with PBST. Thereafter, CL7 was diluted in quadruplicate with PBS, incubated with the antigen at room temperature for 1 hour for antigen binding 1 hour later, and washed three times with PBST. Then, a secondary antibody (HRP-conjugated anti-Fc IgG) diluted to 4 μg/mL in blocking buffer was added thereto, followed by incubation at room temperature for 1 hour. Subsequently, the unbound antibody for detection was removed using PBST, and then a TMB solution was added thereto, followed by incubation for 10 minutes for development. Then, 2 N sulfuric acid solution was added to terminate the development reaction, and the absorbance was measured at 450 nm to identify the antibody specifically binding to the CD300c antigen.

[2] = molecular target: T2, CD300c antigen (11832-H08H, Sino Biological) (human, UniProt Q08708 21-183)
T2 construct: Bought antigen; also called CD300c protein; CD300 antigen-like family member C
T2 sequence (looked up): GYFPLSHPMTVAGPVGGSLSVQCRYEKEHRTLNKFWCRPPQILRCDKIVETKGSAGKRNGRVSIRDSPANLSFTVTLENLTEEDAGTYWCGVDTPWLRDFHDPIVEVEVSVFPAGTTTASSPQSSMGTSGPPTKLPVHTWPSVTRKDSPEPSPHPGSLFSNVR
Method: as §1

B7-H4 (Sino Biological) = molecular target: T3, B7-H4 (Sino Biological) (UniProt Q7Z7D3 25-258, limits assumed)
T3 sequence (looked up): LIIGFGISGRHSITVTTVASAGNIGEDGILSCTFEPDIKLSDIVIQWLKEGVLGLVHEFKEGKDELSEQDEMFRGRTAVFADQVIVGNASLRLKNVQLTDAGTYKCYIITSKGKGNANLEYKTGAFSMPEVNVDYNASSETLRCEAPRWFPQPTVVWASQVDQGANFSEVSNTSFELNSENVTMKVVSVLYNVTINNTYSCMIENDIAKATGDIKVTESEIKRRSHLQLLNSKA
Method: as §1

[3] = molecular target: T4, CD80[B7-1] (Sino Biological) (UniProt P33681 35-242)
T4 sequence (looked up): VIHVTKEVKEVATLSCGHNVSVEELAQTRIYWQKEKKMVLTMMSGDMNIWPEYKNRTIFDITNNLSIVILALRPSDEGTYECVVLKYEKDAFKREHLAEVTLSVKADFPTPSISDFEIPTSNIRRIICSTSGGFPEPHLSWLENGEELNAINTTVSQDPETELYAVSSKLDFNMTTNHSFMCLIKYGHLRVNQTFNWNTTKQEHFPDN
Method: as §1

[4] = molecular target: T5, CD86[B7-2] (Sino Biological) (UniProt P42081 24-245, limits assumed)
T5 sequence (looked up): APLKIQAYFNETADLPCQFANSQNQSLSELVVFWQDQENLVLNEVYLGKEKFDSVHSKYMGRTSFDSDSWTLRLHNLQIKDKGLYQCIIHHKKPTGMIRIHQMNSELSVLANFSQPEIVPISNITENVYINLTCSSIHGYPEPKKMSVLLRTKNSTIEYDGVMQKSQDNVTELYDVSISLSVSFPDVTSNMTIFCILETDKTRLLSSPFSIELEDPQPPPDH
Method: as §1

[5] = molecular target: T6, CD276[B7-H3] (Sino Biological) (UniProt Q5ZPR3 29-461, limits assumed)
T6 sequence (looked up): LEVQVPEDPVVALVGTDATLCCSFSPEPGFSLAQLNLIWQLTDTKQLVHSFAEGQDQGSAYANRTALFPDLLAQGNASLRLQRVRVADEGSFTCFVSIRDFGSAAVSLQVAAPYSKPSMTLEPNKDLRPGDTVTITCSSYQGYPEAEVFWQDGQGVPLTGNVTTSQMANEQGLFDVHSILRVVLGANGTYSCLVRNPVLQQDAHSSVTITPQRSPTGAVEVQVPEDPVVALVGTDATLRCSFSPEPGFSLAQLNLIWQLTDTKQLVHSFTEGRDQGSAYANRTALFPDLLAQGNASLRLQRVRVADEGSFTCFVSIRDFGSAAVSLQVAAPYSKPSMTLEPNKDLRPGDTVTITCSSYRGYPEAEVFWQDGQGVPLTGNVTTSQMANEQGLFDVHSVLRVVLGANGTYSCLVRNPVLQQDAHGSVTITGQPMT
Method: as §1

B1: CL7 (antibody, V domains shown)
VH: EVQLLESGGGLVQPGGSLRLSCAASGFTFSRYAMSWVRQAPGKGLEWVSAISGSGGSTYYADSVKGRFTISRDNSKNTLYLQMNSLRAEDTAVYYCARSSQGIFDIWGQGTLVTVSS
VL: QSVLTQPPSASGTPGQRVTISCSGNNIGTRRVHWYQQLPDTAPKLLIYSKNNRPSGVPDRFSGSKSGTSASLAISGLRSEDEADYYCAAWDDSLSGPVFGGGTKLTVL
notes: detected with anti-human IgG (H+L) and anti-Fc IgG; also called anti-CD300c monoclonal antibody CL7; anti-CD300c monoclonal antibody (CL7)
Question: Does B1 bind [1]?
Answer: Result: no binding (tested: log10 about 0.4 ug/ml (about 2.5 ug/ml))

Question: And the “EC50 (read off the curve)” value [2]?
Answer: The value was about 0.2 µg/mL.

Question: Does B1 bind (B7-H4 (Sino Biological))?
Answer: Result: no binding (tested: log10 about 0.4 ug/ml (about 2.5 ug/ml))

Question: Does B1 bind [3]?
Answer: Result: no binding (tested: log10 about 0.4 ug/ml (about 2.5 ug/ml))

Question: Does B1 bind [4]?
Answer: Result: no binding (tested: log10 about 0.4 ug/ml (about 2.5 ug/ml))

Question: Does B1 bind [5]?
Answer: Result: no binding (tested: log10 about 0.4 ug/ml (about 2.5 ug/ml))
